# Residue numbers refer to the chain shown, from its start.
# B1: huAb3v2.5-CZ (antibody, human IgG1, kappa, L234A L235A, V domains shown)
# VH: EVQLVQSGAEVKKPGSSVKVSCKASGYTFSSYWMHWVRQAPGQGLEWIGLIHPESGSTNYNEMFKNRATLTVDRSTSTAYMELSSLRSEDTAVYYCAGGGRLYFDYWGQGTTVTVSS
# VL: DIVMTQSPLSLPVTPGEPASISCRSSQSLVHSNRDTYLRWYLQKPGQSPQLLIYKVSNRFSGVPDRFSGSGSGTDFTLKISRVEAEDVGVYYCSQSTHVPYTFGGGTKVEIKR
# modifications: synthon CZ on reduced interchain Cys
# B2: huAb3v5 (antibody, V domains shown)
# VH: B1 VH with E54D
# VL: DVVMTQSPLSLPVTPGEPASISCRSSQSLVHSNGDTYLRWYLQKPGQSPQLLIYKVSNRFSGVPDRFSGSGSGTDFTLKISRVEAEDVGVYYCSQSTHVPYTFGGGTKVEIK
# notes: humanized IgG
# B3: huAb3v5-CZ (antibody, V domains shown)
# VH: B1 VH with E54D
# VL: B2 VL
# modifications: synthon CZ on reduced interchain Cys
# notes: ADC, DAR 3.1
# B4: huAb3v4 (antibody, V domains shown)
# VH: B1 VH with I48M, E54D, A68V, L70I, V72A, R74K, G98R
# VL: B2 VL
# notes: humanized IgG
# B5: huAb3v1-CZ (antibody, V domains shown)
# VH: B1 VH with I48M, E54D, A68V, L70I, V72A, R74K, G98R
# VL: B2 VL with V2I
# modifications: synthon CZ on reduced interchain Cys
# notes: ADC, DAR 3.6
# B6: huAb3v6-CZ (antibody, V domains shown)
# VH: B1 VH with E54D, M81V, Y95F
# VL: B2 VL
# modifications: synthon CZ on reduced interchain Cys
# notes: ADC, DAR 3.3
# B7: huAb3v2.8-CZ (antibody, V domains shown)
# VH: B1 VH with E54I
# VL: B2 VL with V2I, G34R
# modifications: synthon CZ on reduced interchain Cys
# notes: ADC, DAR 2.0
# B8: huAb3v1 (antibody, V domains shown)
# VH: B1 VH with I48M, E54D, A68V, L70I, V72A, R74K, G98R
# VL: B2 VL with V2I
# notes: humanized IgG
# B9: huAb3v3-CZ (antibody, V domains shown)
# VH: B1 VH with E54D, M81V, Y95F
# VL: B2 VL with Y92F
# modifications: synthon CZ on reduced interchain Cys
# notes: ADC, DAR 3.6
# B10: huAb3v6 (antibody, V domains shown)
# VH: B1 VH with E54D, M81V, Y95F
# VL: B2 VL
# notes: humanized IgG
# B11: huAb3v2.3-CZ (antibody, V domains shown)
# VH: B1 VH with E54W
# VL: B2 VL with V2I, G34Q
# modifications: synthon CZ on reduced interchain Cys
# notes: ADC, DAR 1.1
# B12: huAb3v3 (antibody, V domains shown)
# VH: B1 VH with E54D, M81V, Y95F
# VL: B2 VL with Y92F
# notes: humanized IgG
# B13: chAb3 (antibody, IgG1, V domains shown)
# VH: QVQLQQPGAELVKPGASVKLSCKASGYTFSSYWMHWVKQRPGQGLEWIGLIHPDSGSTNYNEMFKNKATLTVDRSSSTAYVQLSSLTSEDSAVYFCAGGGRLYFDYWGQGTTLTVSS
# VL: B2 VL with S7T, T14S, P15L, E17D, P18Q, Q50K, S81T, V88L, Y92F, V109L
# notes: chimeric, huIgG1/k
# B14: chAb3-CZ (antibody, IgG1, V domains shown)
# VH: B13 VH
# VL: B2 VL with S7T, T14S, P15L, E17D, P18Q, Q50K, S81T, V88L, Y92F, V109L
# modifications: synthon CZ on reduced interchain Cys
# B15: chAb18-CZ (antibody, IgG1, V domains shown)
# VH: QVQLQQSAAELARPGASVKMSCKASGYSFTSYTIHWVKQRPGQGLEWIGYINPNSRNTDYNQKFKDETTLTADRSSSTAYMQLISLTSEDSAVYYCARYSGSTPYWYFDVWGAGTTVTVSS
# VL: QIVLTQSPAILSASPGEKVTMTCRASSSVSYMNWYQQKPGSSPKPWIYATSNLASGVPARFSVSVSGTSHSLTISRVEAEDAATYYCQQWSSNPLTFGAGTKLELK
# modifications: synthon CZ on reduced interchain Cys
# Key:
# [1] = biological target: T1, hB7-H3 (ELISA antigen of Tables 17 and 20) (human, UniProt Q5ZPR3 29-466, limits assumed); test: ELISA
# T1 sequence: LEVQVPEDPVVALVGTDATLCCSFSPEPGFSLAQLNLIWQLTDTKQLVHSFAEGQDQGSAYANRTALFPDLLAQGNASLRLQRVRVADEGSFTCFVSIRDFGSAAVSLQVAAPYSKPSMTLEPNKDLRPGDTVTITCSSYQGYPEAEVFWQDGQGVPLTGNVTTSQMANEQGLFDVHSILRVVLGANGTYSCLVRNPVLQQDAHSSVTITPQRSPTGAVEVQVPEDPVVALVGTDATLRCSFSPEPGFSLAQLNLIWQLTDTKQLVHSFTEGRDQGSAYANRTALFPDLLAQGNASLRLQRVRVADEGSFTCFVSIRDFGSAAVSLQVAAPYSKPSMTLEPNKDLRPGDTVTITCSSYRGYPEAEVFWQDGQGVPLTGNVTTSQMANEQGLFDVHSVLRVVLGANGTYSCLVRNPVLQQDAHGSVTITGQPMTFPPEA
# [2] = biological target: T2, Human full length B7-H3 (human, UniProt Q5ZPR3 29-534); test: cell-based or functional assay
# T2 sequence: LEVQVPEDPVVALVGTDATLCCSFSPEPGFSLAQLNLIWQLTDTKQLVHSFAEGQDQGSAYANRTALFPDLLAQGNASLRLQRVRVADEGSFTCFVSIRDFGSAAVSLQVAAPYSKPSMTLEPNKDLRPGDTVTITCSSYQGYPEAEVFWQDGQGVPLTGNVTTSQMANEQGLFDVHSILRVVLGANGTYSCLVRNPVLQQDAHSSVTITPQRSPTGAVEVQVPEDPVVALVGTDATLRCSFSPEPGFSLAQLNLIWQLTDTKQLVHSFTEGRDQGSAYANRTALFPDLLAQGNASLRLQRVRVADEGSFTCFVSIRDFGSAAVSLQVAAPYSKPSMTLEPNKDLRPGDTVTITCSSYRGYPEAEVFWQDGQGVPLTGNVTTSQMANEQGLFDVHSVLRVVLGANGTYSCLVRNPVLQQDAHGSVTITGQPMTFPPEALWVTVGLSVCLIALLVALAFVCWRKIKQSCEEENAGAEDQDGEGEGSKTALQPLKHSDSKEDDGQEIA
# [3] = biological target: T3, Cynomolgous B7-H3 on cells (cynomolgus); test: FACS, 3T12 transfectants
# T3 construct: whole, on cells; also called cyB7-H3; cyno B7-H3
# [4] = biological target: T4, Human B7-H3-ECD (His tag) (human, UniProt Q5ZPR3 29-461); test: SPR Biacore, naked mAb
# T4 construct: SPR analyte; also called huB7-H3; soluble ECD of human B7-H3
# T4 sequence: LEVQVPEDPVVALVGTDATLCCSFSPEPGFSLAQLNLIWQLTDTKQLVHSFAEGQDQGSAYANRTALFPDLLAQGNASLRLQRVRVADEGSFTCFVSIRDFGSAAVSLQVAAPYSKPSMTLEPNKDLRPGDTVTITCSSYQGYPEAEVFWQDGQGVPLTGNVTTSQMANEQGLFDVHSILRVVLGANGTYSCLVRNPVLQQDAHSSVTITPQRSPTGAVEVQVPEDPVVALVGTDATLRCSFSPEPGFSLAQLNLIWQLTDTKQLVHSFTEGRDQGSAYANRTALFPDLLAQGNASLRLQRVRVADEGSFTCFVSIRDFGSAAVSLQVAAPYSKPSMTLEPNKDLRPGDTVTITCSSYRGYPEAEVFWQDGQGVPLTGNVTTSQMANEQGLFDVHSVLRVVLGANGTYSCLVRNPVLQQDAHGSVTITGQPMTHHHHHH
# Excerpt: Biacore T200 SPR instruments were used to measure the binding kinetics of human B7-H3 (analyte) binding to various mAbs (ligands). The assay format was Fc-based capture via immobilized anti-mouse (Fc) (Pierce 31170) or immobilized anti-human (Fc) (Pierce 31125). A standard amine coupling protocol was employed to immobilize the capture reagents via primary amines to the carboxy-methyl (CM) dextran surface of CM5 sensorchips (Biacore); capture antibodies were coupled to a level of approximately 5000RU. For binding kinetic measurements the assay buffer was HBS-EP+ (Biacore): 10 mM Hepes, pH7.4, 150 mM NaCl, 3 mM EDTA, 0.05% polysorbate 20. During the assay, all measurements were referenced against the capture surface alone. Each assay cycle consisted of the following steps: 1) Capture of ligand to approximately 50RU; 2) Analyte injection over both reference and test surface, 240 μL at 80 μL/min, after which the dissociation was monitored for 900 seconds at 80 μL/min; 3) Regeneration of capture surface with low pH glycine. […] Data were processed and fit to a 1:1 binding model using Biacore T200 Evaluation Software to determine the binding kinetic rate constants, kₐ (on-rate) and kd (off-rate), and the equilibrium dissociation constant (affinity, KD).
# (§1) These variants were further characterized for binding by SPR and as ADCs conjugated to the Bcl-xL inhibitor synthon (linker warhead) CZ. […] An ADC comprising chAb3 conjugated to synthon CZ was used as a control.
# [5] = biological target: T2, Human full length B7-H3; test: FACS (Example 6 method)
# Procedure: (§2) Cells were harvested from flasks when approximately 80% confluent using Gibco® Cell Dissociation Buffer. Cells were washed once in PBS/1% FBS (FACS buffer) then resuspended at 2.5×10⁶ cells/mL in FACS buffer. 100 μL of cells/well were added to a round bottom 96-well plate. 10 μL of a 10× concentration of mAb/ADC (final concentrations are indicated the figures). Wells were washed twice with FACS buffer and resuspended in 50 μL of secondary Ab (AlexaFluor 488) diluted in FACS buffer. The plate was incubated at 4° C. for one hour and washed twice with FACS buffer. Cells were resuspended in 100 μL of PBS/1% formaldehyde and analyzed on a Becton Dickinson LSRII flow cytometer. Data was analyzed using WinList flow cytometry analysis software.
# as §1
# [6] = biological target: T2, Human full length B7-H3; test: FACS, 3T12 transfectants
# [7] = biological target: T2, Human full length B7-H3; test: FACS, NCI-H1650 cells
# Procedure: To generate purified chimeric antibodies, expression vectors were transiently transfected into HEK293 6E suspension cell cultures in a ratio of 60% to 40% light to heavy chain construct. 1 mg/ml of polyethylenimine (PEI) or 2.6 μL/mL of Expifectamine was used to transfect the cells. Cell supernatants were harvested after five days in shaking flasks, spun down to pellet cells, and filtered through 0.22 μm filters to separate IgG from culture contaminants. Antibody-containing supernatants were purified on Akta Pure using protein A mAb SelectSure. Columns were equilibrated in PBS pH 7.4, supernatants were then passed through the column and a wash was performed with PBS pH 7.4. IgG were eluted with 0.1 M acetic acid pH 3.5 and collected in several aliquots. Fractions containing IgG were pooled and dialyzed in PBS overnight at 4° C.
# as §2
# [8] = biological target: T2, Human full length B7-H3; test: FACS, cell surface human B7-H3 (as Example 6)
# Procedure: as §2
# Nine anti-B7-H3 chimeric antibodies were conjugated to the Bcl-xL inhibiting (Bcl-xLi) synthon CZ (Example 2.1) using conjugation Method A described below. The resulting ADCs (anti-B7-H3 antibodies conjugated to synthon CZ) were tested for binding to cell surface human B7-H3 by FACS (as described in Example 6) and for cell cytotoxicity in cell lines expressing B7-H3. […] Table 6 provides cell surface binding and cytotoxicity activity of anti-B7-H3 chimera ADCs against breast cancer cell HCC38 expressing human B7-H3.
# [9] = biological target: T2, Human full length B7-H3; test: FACS (Example 6 method); remark: listed apart in the source
# Procedure: as §2
# The parental chAb18 from which the variants were derived was also tested as a comparator.
binder,measurement,setting,value
B1,EC50,[1],130 pM
same,EC50 nM H1650 (tumor cell cytotoxicity),[2],0.4 nM
same,EC50,[3],4860 pM
B2,Kd,[4],230 pM
B3,EC50,[5],850 pM
B4,Kd,[4],570 pM
B5,EC50,[5],1450 pM
B6,EC50,[5],1780 pM
B7,EC50,[1],140 pM
same,EC50,[6],3940 pM
same,EC50,[3],3010 pM
B8,Kd,[4],520 pM
B9,EC50,[5],1680 pM
B10,Kd,[4],200 pM
B11,EC50,[1],110 pM
same,EC50,[6],6500 pM
same,EC50,[3],4030 pM
B12,Kd,[4],230 pM
B13,EC50,[7],610 pM
same,Kd,[4],19000 pM
B14,EC50,[8],650 pM
same,EC50,[5],610 pM
B15,EC50,[8],1780 pM
same,EC50,[9],1140 pM

# Reference: patent US20170355769A1 (AbbVie / Abbott, published 2017)
